Three molecules from paper PMC6356969, “Cytosolic Isocitrate Dehydrogenase from Arabidopsis thaliana Is Regulated by Glutathionylation” (Antioxidants, 2019) can be followed below.

As usually defined, the Km is the substrate concentration at which the rate is half of its maximum. Usually kcat stands for the number of substrate molecules converted per active site and unit of time at saturation. A word on the kcat/Km: it is the turnover number divided by the Michaelis constant. The stoichiometry N is the number of molecules, sites or subunits per partner or assembly.

Data set [1] deals with T1, cICDH (cytosolic NADP-ICDH, At1g65930) (Arabidopsis thaliana, UniProt Q9SRZ6, C363S).
T1 construct: ~90 kDa non-covalent dimer
The data set can be described thus: residual activity after preincubation, NADPH at […] nm. The following applies: 1 mM GSNO preincubation, 25 °C; covalent. The data set is classed as biochemical.

The target in data set [2] is T2, cICDH (cytosolic NADP-ICDH, At1g65930) (Arabidopsis thaliana, UniProt Q9SRZ6).
T2 construct: ~90 kDa non-covalent dimer
The data set can be described thus: residual activity after preincubation; LC-MS/MS of glutathionylated peptide; biotin switch. The format is biochemical. As to conditions: 15 min at 25 °C before assay; covalent, S-glutathionylation of Cys363 and S-nitrosylation.

Substrate in data set [3]: O=C(O)CC(C(=O)O)C(O)C(=O)O
The data set can be described thus: purified protein. The format is biochemical, Arabidopsis thaliana. The following applies: 250 µM NADP+, 5 mM MgCl2, 100 mM potassium phosphate pH 7.5, 25 °C, DL-isocitric acid varied 0-5 mM.

Substrate in data set [4]: NC(=O)c1ccc[n+]([C@@H]2O[C@H](COP(=O)(O)OP(=O)(O)OC[C@H]3O[C@@H](n4cnc5c(N)ncnc54)[C@H](OP(=O)(O)O)[C@@H]3O)[C@@H](O)[C@H]2O)c1
The data set can be described thus: purified protein. The format is biochemical, Arabidopsis thaliana. As to conditions: NADP+ varied 0-1 mM, DL-isocitric acid as co-substrate, 5 mM MgCl2, 100 mM potassium phosphate pH 7.5, 25 °C.

Data set [5] concerns the molecule itself. The data set can be described thus: SEC; Superose 12 column, ~10 ug His-ICDH, 50 mM Tris pH 7.5, 5 mM MgCl2, 150 mM NaCl; standards aldolase 158 kDa, conalbumin 75 kDa, ovalbumin 43 kDa; eluted at ~90 kDa against a 48.3 kDa monomer. Background: SEC sorts molecules by how far they enter the pores of the column.
Where [6] appears, read: Table 1 labels the mutant C297S, text and methods say C363S.

On to `N[C@@H](CCC(=O)N[C@@H](CSN=O)C(=O)NCC(=O)O)C(=O)O` [GSNO], for which the “activity after 1 mM GSNO” value in data set [1] is reported as “cICDH C363S was found to be less affected by GSNO treatment than the wild-type enzyme”. Besides, in data set [2], the “activity at increasing GSNO” value was “both increasing concentrations of GSNO and GSSG progressively inhibited the cICDH activity”.

B1: cytosolic NADP-dependent isocitrate dehydrogenase (cICDH), recombinant His-tagged (enzyme, Arabidopsis thaliana, UniProt Q9SRZ6 1-410, looked up)
chain: MAFEKIKVANPIVEMDGDEMTRVIWKSIKDKLITPFVELDIKYFDLGLPHRDATDDKVTIESAEATKKYNVAIKCATITPDEGRVTEFGLKQMWRSPNGTIRNILNGTVFREPIICKNVPKLVPGWTKPICIGRHAFGDQYRATDAVIKGPGKLTMTFEGKDGKTETEVFTFTGEGGVAMAMYNTDESIRAFADASMNTAYEKKWPLYLSTKNTILKKYDGRFKDIFQEVYEASWKSKYDAAGIWYEHRLIDDMVAYALKSEGGYVWACKNYDGDVQSDFLAQGFGSLGLMTSVLVCPDGKTIEAEAAHGTVTRHFRVHQKGGETSTNSIASIFAWTRGLAHRAKLDDNAKLLDFTEKLEAACVGTVESGKMTKDLALIIHGSKLSRDTYLNTEEFIDAVAAELKERLNA
notes: cytosolic NADP-dependent isocitrate dehydrogenase, Arabidopsis thaliana, At1g65930; predicted mass 48.3 kDa including the N-terminal His-tag; also called His-ICDH; His-cICDH; source: E. coli BL21, purified (Ni2+-Sepharose); not shown: His-tag, N-terminal, kept
For B1, in the data set “purified protein [3]”, the Km was 99 µM, the kcat worked out at 4.93 s⁻¹ and the kcat/Km was found to be 49700 M⁻¹ s⁻¹. In addition, in the data set “purified protein [4]”, the Km is 28 µM and the kcat turned out to be 5.81 s⁻¹. In addition, in data set [5], the “stoichiometry N” value was determined as 2.

B2: cICDH (cytosolic NADP-ICDH, At1g65930) (Arabidopsis thaliana; C363S) (protein)
chain: MAFEKIKVANPIVEMDGDEMTRVIWKSIKDKLITPFVELDIKYFDLGLPHRDATDDKVTIESAEATKKYNVAIKCATITPDEGRVTEFGLKQMWRSPNGTIRNILNGTVFREPIICKNVPKLVPGWTKPICIGRHAFGDQYRATDAVIKGPGKLTMTFEGKDGKTETEVFTFTGEGGVAMAMYNTDESIRAFADASMNTAYEKKWPLYLSTKNTILKKYDGRFKDIFQEVYEASWKSKYDAAGIWYEHRLIDDMVAYALKSEGGYVWACKNYDGDVQSDFLAQGFGSLGLMTSVLVCPDGKTIEAEAAHGTVTRHFRVHQKGGETSTNSIASIFAWTRGLAHRAKLDDNAKLLDFTEKLEAASVGTVESGKMTKDLALIIHGSKLSRDTYLNTEEFIDAVAAELKERLNA
notes: ~90 kDa non-covalent dimer
Regarding B2, in the data set “purified protein [3]” (setting [6]), the Km amounted to 95 µM and the catalytic constant (kcat) worked out at 4.31 s⁻¹.
